Entries after “also recorded” stand apart in the source; their conditions may differ.
What was measured:
BGluT = experiment: Pteridines as substrate or competitive inhibitor of the BGluT reaction; format: biochemical, Synechococcus sp. PCC 7942; conditions: for glucosylated product formed from the pteridine as substrate of BGluT: pteridine concentration increased to 5 μM, data not shown
Procedure: Unless otherwise specified, the following standard reaction conditions were used for the determination of tetrahydrobiopterin and its oxidized forms. Reactions were carried out in a final volume of 100 μl, which consisted of 50 mM Tris-HCl (pH 7.5), 10 mM MgCl2, 0.05% ascorbic acid, 500 μM UDP-glucose, 1 μg of BGluT, and an aliquot of pteridines or tissue extracts. The reaction mixture was incubated for 20 minutes at 37° C. and then mixed with 30 μl of acidic iodine solution (2% KIM % I2 in 1 N HCl). After 1 hour in the dark at room temperature, the oxidized mixture was centrifuged. The supernatant was mixed with 10 μl of 5% ascorbic acid and then neutralized with 30 μl of 1 N NaOH for injection to HPLC.
(§1) The HPLC system consisted of Gilson 321 pump, Gilson 234 autoinjector, a fluorescence detector (Schimadzu RF-10AXL), and a system software (Gilson Unipoint version 5.11). Chromatography was performed on a guard column (10 μm, 4.3 mm×1 cm) and an Inertsil ODS-3 (5 μm, 150×2.3 mm, GL Science, Japan) equilibrated with 10 mM potassium phosphate buffer (pH 6.0) at room temperature. Pteridines were eluted isocratically at a flow rate of 1.2 ml/min and monitored at 350/450 nm (excitation/emission). Pteridine peaks were identified and quantified using authentic pteridines, which were purchased from Dr. B. Schirck's Lab (Jona, Switzerland). Biopterin-glucoside was isolated from Synechococcus sp. PCC 7942 (Y. K. Choi, Y. K. Hwang, Y. H. Kang, Y. S. Park, Chemical structure of 1-O-(L-erythro-biopterin-2′-yl)-alpha-glucose isolated from a cyanobacterium Synechococcus sp. PCC 7942, Pteridines, 12 (2001) 121-125).
To determine whether the presence of dihydrobiopterin, structurally similar to tetrahydrobiopterin, interferes with glucosylation of tetrahydrobiopterin, 1 μM of dihydrobiopterin was added to the same mixture for enzyme reaction as in FIG. 1B, which was then oxidized under acidic condition.
Biological samples contain tetrahydrobiopterin as well as its oxidized forms (dihydrobiopterin and bipterin). In order to quantitatively analyze only tetrahydrobiopterin selectively using BGluT, the BGluT reaction should be specific to tetrahydrobiopterin, without being interfered by its oxidized forms. Using various pteridines (dihydrobiopterin, biopterin, neopterin, tetrahydroneopterin, and isomers thereof) as a substrate, potential inhibitory effect was evaluated. […] It therefore was suspected that dihydrobiopterin might function as a competitive inhibitor in glucosylation of tetrahydrobiopterin by BGluT.
However, when the concentration of dihydrobiopterin is higher than tetrahydrobiopterin, dihydrobiopterin could show inhibitory effects. In order to examine whether dihydrobiopterin interferes with the BGluT reaction, dihydrobiopterin was coincubated under the standard reaction condition with a fixed amount (0.25 μM) of tetrahydrobiopterin, along with increasing concentrations of dihydrobiopterin up to 4-fold (0.05˜1 μM) (see FIG. 4). In FIG. 4, the X-axis represents concentrations of dihydrobiopterin added to the reaction solution and the Y-axis represents peak areas of the glucosylated product produced from tetrahydrobiopterin. The results thereof show means±standard deviations of the peak areas of biopterin-glucoside, which were obtained from triplicate assays. […] In general, the concentrations of the oxidized forms of tetrahydrobiopterin in a biological sample are not higher than that of tetrahydrobiopterin.
In order to examine whether the added dihydrobiopterin has been glucosylated even in small amount, the peak areas of biopterin originated from the dihydrobiopterin (X-axis) were compared with those determined from the same concentration of dihydrobiopterin without enzyme reaction (Y-axis) (FIG. 4 (insert)). The slope obtained from regression line was almost 1.

[1] = Pteridine glycosyltransferase activity with human urine; format: biochemical; conditions: 1 μg protein, 10 μl human urine in 100 μl, FIG. 12
Procedure: Also, 1 μg of each protein was added to 100 μl of reaction solution containing 10 μl of human urine instead of tetrahydrobiopterin. The reaction mixture was incubated at for 20 minutes. For CY-49, 500 μM UDP-xylose was added as a substrate; and for other enzymes, UDP-glucose was added. Other reaction conditions were the same as in the above.

[2] = Analysis of protein activity of the recombinant proteins with UDP-glycosides; format: biochemical; conditions: for pteridine glycosyltransferase activity (sugar bound to tetrahydrobiopterin): 1 μM tetrahydrobiopterin, 500 μM UDP-glycoside, HPLC, FIG. 10
Procedure: The protein activity was assayed in 100 μl of reaction mixture having the following composition: 50 mM Tris-HCl (pH 7.5), 10 mM MgCl2, 0.2% ascorbic acid, 1 μM tetrahydrobiopterin, 500 μM UDP-glycoside (one of UDP-glucose, UDP-galactose, UDP-xylose, UDP-glucuronic acid, UDP-galacturonic acid, UDP-N-acetylglucosamine, and UDP-N-acetylgalactosamine) and an appropriate amount of the purified recombinant protein. The reaction was performed at 37 for 10-60 minutes depending on an amount of protein. 30 μl of acidic iodine solution (2%/1% KI/I2 in 1 M HCl) was added to the reaction mixture and allowed in darkness for 1 hour for oxidation thereof. The mixture was centrifuged to recover the supernatant, which was then mixed with 10 μl of 5% ascorbic acid. 30 μl of 1N NaOH was added to the resulting mixture for neutralization and then HPLC analysis was carried out.
as §1, with “HPLC” for “The HPLC”, “quantified by” for “quantified”

[3] = Characterization of enzyme activity by amount of protein, compared with BGluT; format: biochemical; conditions: production of tetrahydrobiopterin-glycoside by amount of protein (0.05-1.0 μg), FIG. 11
Procedure: The enzymatic activities for the isolated proteins were compared with that of BGluT. First, production profiles of tetrahydrobiopterin(BH4)-glucoside produced according to amounts of the proteins was compared with that of BGluT. The enzyme activities were represented as a percentage to all converted amounts. The reaction condition was as follows. That is, reactions were performed in a final volume of 100 μl, which consisted of 50 mM Tris-HCl (pH 7.5), 10 mM MgCl2, 0.05% ascorbic acid, 1 μM tetrahydrobiopterin, 500 μM UDP-glucose or UDP-xylose, and a protein (0.05-1.0 μg). The reaction mixture was incubated at 37 for 20 minutes. 30 μl of acidic iodine solution (2%/1% KI/I2 in 1 M HCl) was added thereto in darkness for 1 hour at room temperature, so as to oxidize the reaction mixture. After centrifugation, the resulting supernatant was mixed with 10 μl of 5% ascorbic acid and neutralized with 30 μl of 1N NaOH for injection to HPLC.

Row | Molecule | HPLC chromatogram of the reaction mixture with human urine [1] | glucosylated product formed from the pteridine as substrate of BGluT (BGluT) | Substrate for glucosylation [2] | pteridine glycosyltransferase activity (sugar bound to tetrahydrobiopterin) [2] | further results
1 | Nc1nc2c(c(=O)[nH]1)NC(C(O)C(O)CO)CN2 (stereo not drawn) [tetrahydroneopterin] | – | only dihydrobiopterin among the pteridines showed | – | – | –
2 | biopterin | – | only dihydrobiopterin among the pteridines showed | – | – | –
3 | C[C@H](O)[C@H](O)C1=Nc2c(nc(N)[nH]c2=O)NC1 [dihydrobiopterin] | – | a small amount of glucosylated product | – | – | slope of regression line, biopterin-glucoside peak area against dihydrobiopterin concentration (BGluT; 0.25 μM tetrahydrobiopterin, 0.05~1 μM dihydrobiopterin, standard reaction condition, FIG. 4): zero; effect of added dihydrobiopterin on glucosylation of tetrahydrobiopterin (BGluT; 1 μM dihydrobiopterin added, FIG. 1C): no significant difference in the amounts of glucosylated products of tetrahydrobiopterin; slope of regression line, biopterin from dihydrobiopterin with BGluT against without enzyme reaction (BGluT; FIG. 4 (insert)): ~1
4 | Nc1nc2ncc([C@H](O)[C@H](O)CO)nc2c(=O)[nH]1 [neopterin] | – | only dihydrobiopterin among the pteridines showed | – | – | –
5 | CY-49: recombinant pteridine glycosyltransferase from Spirulina maxima CY-49, amino acid SEQ ID NO 3, transfers xylose (protein, Spirulina maxima CY-49) MPQKSWKLLFISTPVGPLGSGLGGGVELTLLNMAKALHSRGHDITVVAPSGSVLESLSVIEISGKLQPIAQNQDRDSLITIPENSVLGNMWEYGRQVQTNYHAIVNFAFDWLPFYLTPFFPTPIAHWVSMGSLISALDQIVVEVMKQFPGTVGFYSHTQAATFGSDLGYACLGSGLEMDRYQFCDQPHQQLAWMGRISPEKGLEDAIAAADKTGIPLAIFGKIQDEQYWQNILNTYPNAPLNYRGFLNTDELQQGLRECRGLLMTHRWVEAFGNVAIEALACGVPVISYRRGGPAEIVRDGETGWLVEPDSVTGLVDAIAKLEQIDRRQCRALAEKEYSLVALGDRLETWLSDVIALKN | showed the peak of biopterin-xylose, instead of biopterin-glucose | – | Xylose | an activity for binding xylose to tetrahydrobiopterin | activity compared with BGluT [3]: higher activities than BGluT
6 | UICA: recombinant pteridine glycosyltransferase from unidentified wild cyanobacteria A, amino acid SEQ ID NO 4 (protein, Unidentified cyanobacteria sp.) LSRKLLFLSTPVGFLGSGGGGGVELTIYNLARTLNKQGYAVRVVAPEASQLQDIPLITIAGNAQISAQSQDREAPILIPENAVLANMWHYAQQVQNEYDLIVNFAYDWLPFYLTPFFATPVAHLVSMASVSLAMDNIIQKTYRSFPHSLAFHTVTQAETFSLSPPYRRLANGLDVSLYQFRADPSPCLAWVGRIAPEKALEGAIAACQQLGVPLRVFGHISNPLYWQNLQDTYSFDLVDYRGFLPTGSLQKELGDCFGLLMTPGWVEAFGNVAIEALACGVPVVAYRRGGPVEIIEEGKTGFLVEPDSIEGLVTGIKNLDRIDRYSCRAVVEQKYSLEALANRAINWFDEIFARKK | very similar to that of BGluT | – | Glucose | an activity for binding glucose to tetrahydrobiopterin | –

The next lines start with results.

Row | HPLC chromatogram of the reaction mixture with human urine [1] | Molecule | glucosylated product formed from the pteridine as substrate of BGluT (BGluT) | Substrate for glucosylation [2] | pteridine glycosyltransferase activity (sugar bound to tetrahydrobiopterin) [2] | further results
7 | very similar to that of BGluT | UICB: recombinant pteridine glycosyltransferase from unidentified wild cyanobacteria B, amino acid SEQ ID NO 5 (protein, Unidentified cyanobacteria sp.) LSRKLLFLSTPVGFLGSGDGGGVELTIYNLARTLNKQGYAVRVAAPEASQLQDIPLITMAGNAQISAQSQGREAPILMPENAVLANMWHYAQQVQKQYDLIVNFAYDWLPFYLTPFFATPVAHLVSMASVSLAMDHINEKTYSNFPHLLAFHTLAQAETFSLSPPYRCLANGLDVSLYQFRDDPSPCLAWVGRIAPEKALEDAIAACQQLGVPLRVFGHISDPLYWQNSQDTYSFDLVDYRGFLPTGSLQKELGDCFGLLMTPRWVEAFGNVAIEALACGVPVVAYRRGGPVEIIEEGKTGFLVEPDSIEGLVTGIKNLDRIDRYSCRAVVEQKYSLEASANRAINWFEEIFARKK | – | Glucose | an activity for binding glucose to tetrahydrobiopterin | –
8 | very similar to that of BGluT | CY-7: recombinant pteridine glycosyltransferase from Spirulina platensis CY-7, amino acid SEQ ID NO 2 (protein, Spirulina platensis CY-7) MTPTSWKLLFISTPVGPLGSGLGGGVELTLLNMAKALKSRGHDITVVAPSGSVLESLSIIEIPGELQPIAQNQDRDSLITIPENSVLGNMWEYGRQVQTNYHAIVNFAFDWLPFYLTPFFDTPIAHCVSMASLISALDQIVGQVMKQFPGTVGFHSHTQAATFGSDLDYACLGSGLEMERYQFCEQPHQQLAWMGRISPEKGLEDAIAAADKTGIPLEIFGKIQDDQYWQNILNTYPNAPLNYRGFLNTDELQQGLRQCRGLLMTHRWVEAFGNVAIEALACGVPVISYRRGGPAEIVRDGETGWLVEPDSVTGLVDAIAKFEQIDRRQCRAVAEKEYSLAALGDRLEKWLSDVTRLKN | – | Glucose | an activity for binding glucose to tetrahydrobiopterin | activity compared with BGluT [3]: higher activities than BGluT; also recorded: more excellent activity than BGluT

From patent US8658382B2, “Proteins with pteridine glycosyltransferase activity and analysis method using the same” (Inje University Industry-Academic Cooperation Foundation, priority 2008, dated 2014)
